Source: paper PMC4356373, “The structure of the hexameric atrazine chlorohydrolase AtzA” (Acta Crystallographica Section D: Biological Crystallography, 2015)
Residue numbers refer to the chain shown, from its start.

B1: Atrazine chlorohydrolase (AtzA), wild type (enzyme, Pseudomonas sp. strain ADP)
chain: MQTLSIQHGTLVTMDQYRRVLGDSWVHVQDGRIVALGVHAESVPPPADRVIDARGKVVLPGFINAHTHVNQILLRGGPSHGRQFYDWLFNVVYPGQKAMRPEDVAVAVRLYCAEAVRSGITTINENADSAIYPGNIEAAMAVYGEVGVRVVYARMFFDRMDGRIQGYVDALKARSPQVELCSIMEETAVAKDRITALSDQYHGTAGGRISVWPAPATTTAVTVEGMRWAQAFARDRAVMWTLHMAESDHDERIHGMSPAEYMECYGLLDERLQVAHCVYFDRKDVRLLHRHNVKVASQVVSNAYLGSGVAPVPEMVERGMAVGIGTDNGNSNDSVNMIGDMKFMAHIHRAVHRDADVLTPEKILEMATIDGARSLGMDHEIGSIETGKRADLILLDLRHPQTTPHHHLAATIVFQAYGNEVDTVLIDGNVVMENRRLSFLPPERELAFLEEAQSRATAILQRANMVANPAWRSL
notes: Atrazine chlorohydrolase AtzA of Pseudomonas sp. strain ADP, wild-type atzA gene in the pCS150 expression vector; about 470 amino acids; one Fe2+ per monomer; hexamer is a trimer of dimers; also called wild-type protein; source: E. coli BL21 λDE3, purified (Ni-NTA, SEC, thrombin cleavage of the His tag, SEC)
B2: AtzA Ala170Thr, Met256Ile, Pro258Thr, Tyr261Ser variant (enzyme, Pseudomonas sp. strain ADP)
chain: B1 chain with A170T, M256I, P258T, Y261S
notes: synthetic gene (Life Technologies) subcloned into pCS150; The PDB entries hold the wild-type parent of the same vector, not this variant; also called AtzA variant; the variant; source: E. coli BL21 λDE3, purified (Ni-NTA, SEC, thrombin cleavage of the His tag, SEC)

Columns and labels:
[1] = target: the molecule itself; assay: crystal structure; two crystal forms: P22(1)2(1) at 2.8 Å (two hexamers in the asymmetric unit) and P2(1)2(1)2(1) at 2.2 Å (one hexamer); PEG 8000 or PEG 10 000, 50 mM HEPES pH 7.1-7.3, 281 K
[2] = target: the molecule itself; assay: SEC; purified variant, size by SEC; data not shown

Protein	stoichiometry N [1]	stoichiometry N [2]
B1	6	–
B2	–	2
